{"source": "paper PMC12374970", "about": "“NSUN2 facilitates DICER cleavage of DNA damage-associated R-loops to promote repair” (Nature Communications, 2025)", "biological_target": "T1, 6xHis-DICER (recombinant wild-type DICER) (human, UniProt Q9UPY3 1-1922)", "T1 construct": "DICER (endoribonuclease Dicer), human; expressed from pFastBac1-hDICER; See Addgene 89144 and the plasmid list in Supplementary Data 1; also called hDICER; recombinant DICER; source: Sf9 (baculovirus, pFastBac1-hDICER), purified (Ni-NTA)", "T1 sequence (Q9UPY3 whole entry)": "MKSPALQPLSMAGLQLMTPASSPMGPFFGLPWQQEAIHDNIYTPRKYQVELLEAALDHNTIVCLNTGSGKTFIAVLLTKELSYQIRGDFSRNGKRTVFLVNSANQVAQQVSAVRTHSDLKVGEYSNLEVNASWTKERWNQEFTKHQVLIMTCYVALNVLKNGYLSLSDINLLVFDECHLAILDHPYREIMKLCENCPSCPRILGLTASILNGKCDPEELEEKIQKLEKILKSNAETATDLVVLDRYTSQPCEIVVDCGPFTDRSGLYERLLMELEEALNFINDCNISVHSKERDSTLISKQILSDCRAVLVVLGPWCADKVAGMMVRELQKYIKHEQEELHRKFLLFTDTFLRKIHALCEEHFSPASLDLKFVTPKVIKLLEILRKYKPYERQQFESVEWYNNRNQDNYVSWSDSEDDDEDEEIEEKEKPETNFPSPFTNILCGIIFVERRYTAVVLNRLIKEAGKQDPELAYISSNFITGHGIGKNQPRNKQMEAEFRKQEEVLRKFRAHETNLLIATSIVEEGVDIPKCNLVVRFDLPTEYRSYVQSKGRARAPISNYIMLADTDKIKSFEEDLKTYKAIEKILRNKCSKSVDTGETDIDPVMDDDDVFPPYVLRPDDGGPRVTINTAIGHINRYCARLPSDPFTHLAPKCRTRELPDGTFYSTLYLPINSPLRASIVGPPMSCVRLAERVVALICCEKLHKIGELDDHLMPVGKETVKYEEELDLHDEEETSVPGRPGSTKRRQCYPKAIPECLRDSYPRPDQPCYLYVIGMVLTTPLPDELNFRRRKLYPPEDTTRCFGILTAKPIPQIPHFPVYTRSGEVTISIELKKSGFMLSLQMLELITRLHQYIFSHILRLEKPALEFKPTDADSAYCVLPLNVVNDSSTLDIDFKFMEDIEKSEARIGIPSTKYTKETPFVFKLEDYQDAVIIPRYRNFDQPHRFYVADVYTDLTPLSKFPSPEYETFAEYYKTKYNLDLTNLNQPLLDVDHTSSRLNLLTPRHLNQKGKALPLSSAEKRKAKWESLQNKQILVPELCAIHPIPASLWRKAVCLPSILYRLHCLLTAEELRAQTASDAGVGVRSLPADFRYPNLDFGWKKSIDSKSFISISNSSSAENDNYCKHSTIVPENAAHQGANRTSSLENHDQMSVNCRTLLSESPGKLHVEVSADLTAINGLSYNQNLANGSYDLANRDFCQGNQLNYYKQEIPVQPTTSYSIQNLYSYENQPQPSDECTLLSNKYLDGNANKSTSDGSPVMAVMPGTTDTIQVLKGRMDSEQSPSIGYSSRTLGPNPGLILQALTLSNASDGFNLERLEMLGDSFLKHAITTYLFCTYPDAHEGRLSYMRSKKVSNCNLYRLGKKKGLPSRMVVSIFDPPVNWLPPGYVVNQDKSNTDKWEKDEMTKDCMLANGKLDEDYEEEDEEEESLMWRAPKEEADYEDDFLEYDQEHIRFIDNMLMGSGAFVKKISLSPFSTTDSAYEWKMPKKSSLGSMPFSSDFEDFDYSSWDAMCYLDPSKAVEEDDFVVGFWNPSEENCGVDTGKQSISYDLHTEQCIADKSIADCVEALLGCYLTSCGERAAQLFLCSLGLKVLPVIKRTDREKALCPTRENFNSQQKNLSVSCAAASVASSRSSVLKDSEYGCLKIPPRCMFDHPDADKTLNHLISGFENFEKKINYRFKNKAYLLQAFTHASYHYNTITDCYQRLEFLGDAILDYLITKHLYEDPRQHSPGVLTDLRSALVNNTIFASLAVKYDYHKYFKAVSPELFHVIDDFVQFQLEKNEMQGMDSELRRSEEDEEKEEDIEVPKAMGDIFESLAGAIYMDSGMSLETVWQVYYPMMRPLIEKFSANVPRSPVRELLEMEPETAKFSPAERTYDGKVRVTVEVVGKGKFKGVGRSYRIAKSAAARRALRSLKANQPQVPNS", "assay": "SPR; Biacore S200; 6xHis-NSUN2 (0.2 μg/mL) immobilised on CM5 chip at pH 4.0 by amine coupling; 2-fold serial dilutions of 6xHis-DICER (0.00117–0.6 µM) in 50 mM TrisHCl (pH 8), 50 mM NaCl, 5 mM MgCl2, 2 mM TCEP, 0.05% Tween20; equilibrium (steady-state) fit", "conditions": "both partners purified", "data": [{"binder": "6xHis-NSUN2 (recombinant wild-type NSUN2) (enzyme, human, UniProt Q08J23 1-767, looked up, RNA m5C-methyltransferase NSUN2, human; The plasmid list is in Supplementary Data 1; also called NSUN2 wt; recombinant NSUN2; source: Sf9 (baculovirus, pFastBac1-NSUN2), purified (Ni-NTA)) MGRRSRGRRLQQQQRPEDAEDGAEGGGKRGEAGWEGGYPEIVKENKLFEHYYQELKIVPEGEWGQFMDALREPLPATLRITGYKSHAKEILHCLKNKYFKELEDLEVDGQKVEVPQPLSWYPEELAWHTNLSRKILRKSPHLEKFHQFLVSETESGNISRQEAVSMIPPLLLNVRPHHKILDMCAAPGSKTTQLIEMLHADMNVPFPEGFVIANDVDNKRCYLLVHQAKRLSSPCIMVVNHDASSIPRLQIDVDGRKEILFYDRILCDVPCSGDGTMRKNIDVWKKWTTLNSLQLHGLQLRIATRGAEQLAEGGRMVYSTCSLNPIEDEAVIASLLEKSEGALELADVSNELPGLKWMPGITQWKVMTKDGQWFTDWDAVPHSRHTQIRPTMFPPKDPEKLQAMHLERCLRILPHHQNTGGFFVAVLVKKSSMPWNKRQPKLQGKSAETRESTQLSPADLTEGKPTDPSKLESPSFTGTGDTEIAHATEDLENNGSKKDGVCGPPPSKKMKLFGFKEDPFVFIPEDDPLFPPIEKFYALDPSFPRMNLLTRTTEGKKRQLYMVSKELRNVLLNNSEKMKVINTGIKVWCRNNSGEEFDCAFRLAQEGIYTLYPFINSRIITVSMEDVKILLTQENPFFRKLSSETYSQAKDLAKGSIVLKYEPDSANPDALQCPIVLCGWRGKASIRTFVPKNERLHYLRMMGLEVLGEKKKEGVILTNESAASTGQPDNDVTEGQRAGEPNSPDAEEANSPDVTAGCDPAGVHPPR", "values": [{"measurement": "Kd", "result": "~500", "unit": "nM"}]}]}
